Test: soluble on expression in E. coli; label from the status in PepcDB or PDB records

Sequence	soluble on expression in E. coli
MSVATGSSETAGGASGGGARVFFQSPRGGAGGSPGSSSGSGSSREDSAPVATAAAAGQVQQQQQRRHQQGKVTVKYDRKELRKRLVLEEWIVEQLGQLYGCEEEEMPEVEIDIDDLLDADSDEERASKLQEALVDCYKPTEEFIKELLSRIRGMRKLSPPQKKSV	soluble
VTPELDEREQEVIVRSAINQFEGFIKLNKKIPPEVLTSLNGIDEAARLADTIAAHMPLKLVDKQQVLEIIDVTERLEFLMGQMESEIDLLQVEKRIRGRVKKQMEKSQREYYLNEQMKAIQKELGEMEDAPDEFETLQKKIDESKMPQEAREKTEQELQKLKMMSPMSAEATVVRSYIDWMVSVPWTKRSKVKKNLAKAEEILNEDHYGLERVKERILEYLAVQNRINKLKGPILCLVGPPGVGKTSLGRSIASATGRKYVRMALGGVRDEAEIRGHRRTYIGSLPGKLIQKMSKVGVKNPLFLLDEIDKMSSDMRGDPASALLEVLDPEQNNSFNDHYLEVDYDLSDVMFVATSNSMNIPGPLLDRMEVIRL	not soluble
QYRHLLDLQPMLEALSESSFLNQPVEGHGPLGIIAFGIGYNYAMEARKAHSIECRLLKIGQYPLPRTQVNELFEACSEVLVVEEGYPVYEELFRGYFGSAKVRGRMDGTLPRDGELTTDLVAAALGVKPPETATTPEIVVGRPPELCKGCGHRDMFDAINIAIKENADHHVFSDIGCYTLGALPPYNAIHTCVDMGAAITMAKGAADAGLRPAVCVIGDSTFAHSGMTGLLDAVNDRTPVTVIIADNNTTAMTGGQCSSASGSKLVNICIGLGVEEA	not soluble
MAFERQGKIEKKISYSLFLNGPNVHFGSILFGAVDKSKYAEELCTHPMRQAYNTLDSNSRIIITVQSVAILDGKLVW	not soluble
MFLSVVTVAFRNYEGVVKTWRSLRNLARDPGLSFEWIVVDGGSEDGTREFLQKRHGEFNLRFISEKDRGIYDAMNKGIALAQGRYTLFLNSGDAFHDDAALFVRQLARQKGEAMYIGDALLDFGGGHKIRRKAKPGYYIYHSLPASHQAIFFPTAALKKYPYDLQYHVSSDYALAARLYKAGYPFRRINGLVSEFSMGGVSTSNNLELCQDAKNVQRKILRVPGFWAQLSYLLRLKTTGKTKARYNKVLEHHHHHH	not soluble
MQIKLPKPFFFEEGKRAVLLLHGFTGNSSDVRQLGRFLQKKGYTSYAPQYEGHAAPPDEILKSSPFVWFKDALDGYDYLVEQGYDEIVVAGLSLGGDFALKLSLNRDVKGIVTMCAPMGGKTEGAIYEGFLEYARNFKKYEGKDQETIDNEMDHFKPTETLKELSEALDTIKEQVDEVLDPILVIQAENDNMIDPQSANYIYDHVDSDDKNIKWYSESGHVITIDKEKEQVFEDIYQFLESLDWSE	not soluble
MGENSLWNVYKTVSFWKVMKNFIIIQIARYTPCLSVKNWLYRTFLRMKVGKKTSFALMVMPDIMFPEKITVGENSIIGYNTTLLAHEYLIREYRLGEIVIGNEVMIGANVTILPGVKIGDGATVSAGTLVHRDVPSGAFVGGNPMRIIYTKEQMTAREGLEHHHHHH	not soluble
MSPSASDKPLPPHHAEHMAEAVAEACRGVECGDGGPFGAVVVDSNGKVVAKGHNMVLVTKDPTMHAEMTAIKNACKALGTFDLSGHILYTSCYPCPMCMGGCLWARFDAIYYGATAQQAAEIGFDDKAFHDFLKDPKSDEIRKLEHLAADNYLLPFQMWSNKPDKTEY	soluble
MKTKDQIDNIVKETYRHIDFSGVILVKEKKGIVYEEVFGYANRNECINNTLQTRFGIASGCKIFTAIGICQLVENGVITFQTKLKECLSVNFPNFNEDITIHHLLTHSSGIPDYFDESIMDNFEDLWKQTPMYLLKSLKDFLPLFQNRDMMYAPGSKFHYNNAGFIILGLIIEEQTGLTFTEYIEKNIFNPIGMNHSGYFSLDRLPRQTALGYIKDEISQTWRTNAYSIPIKGGSDGGAFITASDMLKFWEALFNYEIISQEYTKILLTPHIQVNNNQSYGYGIWIETRENKIFKYHVMGYDPGVSFRSAVYPDLGITLVIPSNKGAGAEKLMIEIEGSF	not soluble
MTVYNRTKQKTEDLVTEGAQAADTPRLAAKSADIVITMLADDDSVSTVTFGEDGLLEGLAENGIHISMSTISVEFSEKLAAAHAEKGQFFLAAPVLGRPDAAAKAALRIITAGPAEAKQAAKPLLDSLSQQIFDVGEESKTANAAKISINFLLVSMLEALSESFLMMEKYGLEQKQFLEIASALFGSPVYQNYGTIMAEQKFEPAGFKMSLGLKDTNLALAAAKRVSANLPLAELAKSHFESGIEKGFGDLDWAALIKCIK	not soluble
MMAESTGVDRGIQSLIAARKSLKLSLEKSKAIGLALGKTGPRFDEIEQRLPLLEAAVRPIRADGEALKDVGGNINRAVGPAAAVLKVFDAVHGLEKSLLSDPKNDLSSYLSVLKRLEEALKFLGENCGLAIQWLEDIVEYLDDHHVADEKYLSNLKKSLRGLSEFHNDRGGGEEKERSQLRLDGGLRNAALDKLENEFRRLLKDNSVPLPMASPSSLGDQACIAPSQLPVTVIHKLQAILGRLRANNRLDKCISIYVEVRSLNVRASLQALDLDYLDISVSEFNDVQSIEGYIAQWGNHLEFAVKHLFEAEFKLCNDVFERLGLNVWMDCFSKIAAQAGMLAFLQFGKTVTDSKKDPIKLLKLLDIFTSLNKLRADFNRLFGGAACIEIQNFTRDLIKRIIDGAAEIFWELLVQVEIQKQTPPPSDGGVPRLVSFVTDYCNKLIGDKYKSTLTQVLLIHKSWRSERFQDNQLMVEVLRIIKAIEQNLDVWMKAYPDQTLAHFFGMNNHWHLYKNLKGTNIGDHLGDSWLKEHDQYKEYYATVFLRDSWGKLPSHLSREGLILFSGGHATARDLVKKRLKAFNDAFDEMYKKQASWVLPEKDLRDRVCQQIVQAIVPVYRSYMQNYGPLVEKDASSSKYVRYTVVALEKILSSLYMPKPMRYGSFKGTPPSEKFKNDVDLRRTTSAVV	soluble
MKLSQQSQAIIESAIQKAINKYTCGCEQTIVTDIHIQPNQNSGELFIYDDEDEELSSVTIDEWTAYEGDDFCEDAERIFRTVLCRMKENGSFDKLTILKPYSFVLVDEDKETISELLLVDDDTLLVNDELLKGLDKELDDFLKDLLEKLEHHHHHH	soluble
MAVEVVMPKLGMAMKEGIITSWNIKAGDNVAKGELIASINSEKIETEIEAPADGTILDIAVSEDEGVPPGTVICYIGKPNEKVEVHESTKVEEELTASEVPQNVQHPEPLGKEVTNKQRIKISPVAKKIAKTENLDIRALLGTGPGGRITKVDVLKALEERVAIPEVLEESKVLPVTGMRKAIANRMHASLQNSAQLTLTMKVDVTDLVALHKEIAEVVQKRYDNKLTITDFVSRAVVLALGEHKEMNSAYIDDAIHQFEHVHLGMAVALEKGLVVPAIRFANNLSLVELSKEIKNAAQKARAGNLNSDDMQGTTFTISNLGSFGIEYFTPVLNTPETGILGVGAIEHVPVYKGKKLKKGSMLPLSLTFDHRVLDGAPAAAFLRTIKRYLEEPVTILL	not soluble
GPLGSEWYYGNVTRHQAECALNERGVEGDFLIRDSESSPSDFSVSLKASGKNKHFKVQLVDNVYCIGQRRFHTMDELVEHYKKAPIFTSEHGEKLYLVRALQ	soluble
MICTPKVGLNNQLTKVQFFMTKYNFLFKQQVIEFYLQNDKNSSLTRRHFQLAETTLERWINQFNHSGINGLALLGKKRNYSPEFKLNVIQAVKNGKFSAEAACLHFGIANSGVVSQWLQAFEKQGINGLIPKPKGRPTMKLQYPKMPPKPKTREEELELENLRLRAENAILKKLQELNQQKMQKKPLSLEHHHHHH	not soluble
MTIDDSNRLLMDVDQFDFLDDGTAQLSNNKTDEEEQLYKRDPVSGAILVPMTVNDQPIEKNGDKMPLKFKLGPLSYQNMAFITAKDKYKLYPVRIPRLDTSKEFSAYVSGLFEIYRDLGDDRVFNVPTIGVVNSNFAKEHNATVNLAMEAILNELEVFIGRVKDQDGRVNRFYELEESLTVLNCLRTMYFILDGQDVEENRSEFIESLLNWINRSDGEPDEEYIEQVFSVKDSTAGKKVFETQYFWKLLNQLVLRGLLSQAIGCIERSDLLPYLSDTCAVSFDAVSDSIELLKQYPKDSSSTFREWKNLVLKLSQAFGSSATDISGELRDYIEDFLLVIGGNQRKILQYSRTWYESFCGFLLYYIPSLELSAEYLQMSLEANVVDITNDWEQPCVDIISGKIHSILPVMESLDSCTAAFTAMICEAKGLIENIFEGEKNSDDYSNEDNEMLEDLFSYRNGMASYMLNSFAFELCSLGDKELWPVAIGLIALSATGTRSAKKMVIAELLPHYPFVTNDDIEWMLSICVEWRLPEIAKEIYTTLGNQMLSAHNIIESIANFSRAGKYELVKS	soluble
MQNEKLDHESVTQAMQPKDTPELRALYKSFEEESIIPLWTQLGDLMPIHPKSKAVPHVWKWSTLLRLARKSGELVPVGRGGERRALGLANPGLGGNAYISPTMWAGIQYLGPRETAPEHRHSQNAFRFVVEGEGVWTVVNGDPVRMSRGDLLLTPGWCFHGHMNDTDQPMAWIDGLDIPFSQQMDVGFFEFGSDRVTDYATPNFSRGERLWCHPGLRPLSGLQNTVASPIGAYRWEFTDRALTEQLLLEDEGQPATVAPGHAAIRYVNPTTGGDVMPTLRCEFHRLRAGTETATRNEVGSTVFQVFEGAGAVVMNGETTKLEKGDMFVVPSWVPWSLQAETQFDLFRFSDAPIMEALSFMRTKIEGQK	soluble
SDFVITGGGIVGLATALRLQSLHPGARISVLEKEPAVARHQSGRNSGVIHAGVYYAPGSHKARFCARGVSSTRAFCDEHGIPYRICGKLIVATDAAELERMGTLETRARANGIVIERLSGEEARRLEPNIKAVGALLSPTTGIVDYGRVAERMAELFRDRGGEIRLDTEVTGGAESEAGVRLETTAGEISAGKAVFCGGLHADRLARAFGASLDFRIVPFRGEYFAIKNQPEDLVQHLIYPVPDPARPFLGVHLTRKMNGGFTVGPN	not soluble
MTDHNLLPEPKKILWRVSELNRNARVILEQTFPLLWVSGEISNLKRYPSGHWYFSLKDDSAQVRCVMFRHKNLYLDWIPQEGMQVEAQALVTLYEARGEFQLTVEQLRRAGLGALFEAFERLKARLQQEGLFSPEYKQPLPRFPRQIGIITSPNTAALRDVLTTLQLRLPSIPVVIYPAPVQGEGSAAAITTALHTAAVRGECDVLILCRGGGSIEDLWAFNEEIVARAIAACPIPIVTGIGHETDFTIADFVADARAPTPTGAAQLASPDRQAILHRLQYWLHRLQQTMERHIERRMQATDLLAHRLIHPGERIRHQQMHLLQLRGRLQNAWNRQVEIRTWRIEETGRRIHSAKPDIQAGIRHQQELAARLQRAMAHRLENLQFKLRQQQQHLIHLDPKAVLARGYSIAYTARGDILHDSRQTRAGDNVRLVFASGWAKADITETGE	not soluble
MSDATLHATDQNPDDFAVQIADQIESFLVAVTEVAKGDEPDSAVPFLLLEVSQLMLAGGRLGAHEDIVPDERYEPDPGPELDVDEIRENLARILDPVDVYSEVFDPYEPRKAPVPARISDDLTDVITDLRHGMVHYKAGRTTEALWWWQFSYFSNWGSTASATLRALQSVVAHVRLNQPLEELDGLDTDQELGEETLESEAGRVMVREIAAPLGLRPVKLEHHHHHH	soluble
MGSDKIHHHHHHAALSTNTVAVEKAPDMVAVMGGEPEVMLDKALEALGGIGNFVKKGQKIVIKPNIGWDRSPELAGNTNPKLVKALVKKCLEAGASKVTVFDHTCDNWQKCYETSGIAEAVKEAGGIIMPANDEKYFKEVSIPGGVNLKSAKIHEALIEADAWINVPVLKNHGGAKMTCAMKNYMGIVWDRRFFHQNDLQQCIADICTWQKKPVLNIVDAYRIMHQNGPQGKSAADVATLKSLIASPNIVAIDTAALRLFNQVKKLDMAAVGHIGKGEALKLGTTNLDNVTIKRIKI	not soluble

— the DeepSol protein solubility set
